PMC3025350, “Regulation and Rate Enhancement during Transcription-Coupled DNA Repair”

What was measured:
Settings in all cases: protein: recombinant; tags: N-terminal His; chain copies: 2; label: 32P; blunt
[1] = target: T1, UvrA WT (Escherichia coli, UniProt P0A698 1-940); assay: EMSA; 2 mM ATP; EMSA, 1 nM 32P-labeled 50 bp duplex, 2 mM ATP, 20 min at 37°C; buffer, salt and pH not given in the material
T1 sequence: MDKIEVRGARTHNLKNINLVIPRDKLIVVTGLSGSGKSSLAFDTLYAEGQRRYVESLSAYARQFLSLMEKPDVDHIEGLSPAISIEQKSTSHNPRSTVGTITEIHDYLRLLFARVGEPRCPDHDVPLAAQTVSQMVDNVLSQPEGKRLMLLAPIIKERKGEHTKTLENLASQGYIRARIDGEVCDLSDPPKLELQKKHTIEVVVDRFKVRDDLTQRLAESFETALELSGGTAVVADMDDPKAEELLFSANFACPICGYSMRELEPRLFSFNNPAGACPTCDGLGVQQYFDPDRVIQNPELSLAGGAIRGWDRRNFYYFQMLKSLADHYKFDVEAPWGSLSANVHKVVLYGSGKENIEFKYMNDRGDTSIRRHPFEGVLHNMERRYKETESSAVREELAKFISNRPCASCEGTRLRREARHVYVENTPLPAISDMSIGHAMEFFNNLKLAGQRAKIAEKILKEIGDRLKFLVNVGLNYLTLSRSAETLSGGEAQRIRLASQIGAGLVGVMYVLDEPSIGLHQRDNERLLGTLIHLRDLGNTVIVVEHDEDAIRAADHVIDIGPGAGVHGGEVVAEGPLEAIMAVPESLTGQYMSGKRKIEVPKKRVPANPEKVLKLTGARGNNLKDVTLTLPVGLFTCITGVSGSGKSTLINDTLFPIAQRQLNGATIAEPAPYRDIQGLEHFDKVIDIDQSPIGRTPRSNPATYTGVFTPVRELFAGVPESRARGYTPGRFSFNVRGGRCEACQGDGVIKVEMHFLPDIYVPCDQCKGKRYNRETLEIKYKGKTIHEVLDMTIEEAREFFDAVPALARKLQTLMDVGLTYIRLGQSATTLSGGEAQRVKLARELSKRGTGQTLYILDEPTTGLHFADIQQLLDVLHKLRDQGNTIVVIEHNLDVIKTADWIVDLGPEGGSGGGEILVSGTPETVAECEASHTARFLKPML

[2] = target: T2, UvrA K37A (Escherichia coli, UniProt P0A698 1-940, K37A); assay: EMSA; 2 mM ATP; binding detected at <300 nM UvrA; EMSA, 1 nM 32P-labeled 50 bp duplex, 2 mM ATP, 20 min at 37°C; buffer, salt and pH not given in the material
T2 sequence: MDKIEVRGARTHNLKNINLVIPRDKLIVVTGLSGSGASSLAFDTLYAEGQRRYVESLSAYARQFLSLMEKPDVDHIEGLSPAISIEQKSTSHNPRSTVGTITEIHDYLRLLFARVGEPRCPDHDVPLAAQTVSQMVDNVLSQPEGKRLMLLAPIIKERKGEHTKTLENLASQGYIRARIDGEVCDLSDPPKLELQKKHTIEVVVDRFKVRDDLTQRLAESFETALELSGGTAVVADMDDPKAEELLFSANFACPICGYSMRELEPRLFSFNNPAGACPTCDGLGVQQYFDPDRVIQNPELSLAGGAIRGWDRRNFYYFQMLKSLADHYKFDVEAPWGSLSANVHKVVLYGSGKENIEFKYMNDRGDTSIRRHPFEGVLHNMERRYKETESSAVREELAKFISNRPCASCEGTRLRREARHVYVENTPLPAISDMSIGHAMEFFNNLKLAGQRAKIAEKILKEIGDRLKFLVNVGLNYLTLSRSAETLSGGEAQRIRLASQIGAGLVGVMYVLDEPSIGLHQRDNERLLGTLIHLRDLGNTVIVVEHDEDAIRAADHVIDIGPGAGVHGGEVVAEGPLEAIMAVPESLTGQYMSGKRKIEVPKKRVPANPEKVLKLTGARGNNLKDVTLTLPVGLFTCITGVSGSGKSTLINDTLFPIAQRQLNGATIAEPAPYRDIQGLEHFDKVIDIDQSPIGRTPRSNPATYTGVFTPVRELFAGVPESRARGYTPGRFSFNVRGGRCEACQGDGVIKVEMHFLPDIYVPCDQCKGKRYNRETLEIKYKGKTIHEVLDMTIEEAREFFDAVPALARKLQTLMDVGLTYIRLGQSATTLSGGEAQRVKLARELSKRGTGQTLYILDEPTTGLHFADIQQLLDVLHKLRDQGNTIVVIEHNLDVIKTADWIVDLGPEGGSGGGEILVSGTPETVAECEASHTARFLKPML

[3] = target: T3, UvrA G502D (Escherichia coli, UniProt P0A698 1-940, G502D); assay: as above
T3 sequence: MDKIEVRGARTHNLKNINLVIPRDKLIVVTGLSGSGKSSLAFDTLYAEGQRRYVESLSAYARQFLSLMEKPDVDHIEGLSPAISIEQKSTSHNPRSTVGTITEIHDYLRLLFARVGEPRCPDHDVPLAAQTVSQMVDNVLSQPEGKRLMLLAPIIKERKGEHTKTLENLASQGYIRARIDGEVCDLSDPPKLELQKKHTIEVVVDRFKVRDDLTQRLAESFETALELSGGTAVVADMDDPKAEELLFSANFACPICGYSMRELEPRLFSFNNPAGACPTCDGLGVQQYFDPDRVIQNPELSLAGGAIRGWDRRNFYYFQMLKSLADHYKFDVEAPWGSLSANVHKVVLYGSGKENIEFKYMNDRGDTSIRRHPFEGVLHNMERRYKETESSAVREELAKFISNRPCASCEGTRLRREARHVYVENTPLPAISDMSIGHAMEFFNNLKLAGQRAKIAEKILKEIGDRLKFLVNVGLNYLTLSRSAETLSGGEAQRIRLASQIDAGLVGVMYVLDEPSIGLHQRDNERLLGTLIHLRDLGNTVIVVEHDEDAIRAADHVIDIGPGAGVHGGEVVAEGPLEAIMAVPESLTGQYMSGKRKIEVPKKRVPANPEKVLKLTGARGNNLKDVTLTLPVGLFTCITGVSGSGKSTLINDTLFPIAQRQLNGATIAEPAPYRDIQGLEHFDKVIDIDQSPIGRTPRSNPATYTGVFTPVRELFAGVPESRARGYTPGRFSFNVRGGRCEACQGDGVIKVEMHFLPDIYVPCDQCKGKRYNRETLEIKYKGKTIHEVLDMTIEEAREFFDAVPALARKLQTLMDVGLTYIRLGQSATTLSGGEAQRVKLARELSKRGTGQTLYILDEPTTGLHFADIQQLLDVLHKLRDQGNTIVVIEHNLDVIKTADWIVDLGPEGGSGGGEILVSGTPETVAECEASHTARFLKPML

[4] = target: T4, UvrA R712A R722A R724A R730A (Escherichia coli, UniProt P0A698 1-940, R712A;R722A;R724A;R730A); assay: EMSA; 2 mM ATP; no binding detected at 800 nM UvrA; EMSA, 1 nM 32P-labeled 50 bp duplex, 2 mM ATP, 20 min at 37°C; buffer, salt and pH not given in the material
T4 sequence: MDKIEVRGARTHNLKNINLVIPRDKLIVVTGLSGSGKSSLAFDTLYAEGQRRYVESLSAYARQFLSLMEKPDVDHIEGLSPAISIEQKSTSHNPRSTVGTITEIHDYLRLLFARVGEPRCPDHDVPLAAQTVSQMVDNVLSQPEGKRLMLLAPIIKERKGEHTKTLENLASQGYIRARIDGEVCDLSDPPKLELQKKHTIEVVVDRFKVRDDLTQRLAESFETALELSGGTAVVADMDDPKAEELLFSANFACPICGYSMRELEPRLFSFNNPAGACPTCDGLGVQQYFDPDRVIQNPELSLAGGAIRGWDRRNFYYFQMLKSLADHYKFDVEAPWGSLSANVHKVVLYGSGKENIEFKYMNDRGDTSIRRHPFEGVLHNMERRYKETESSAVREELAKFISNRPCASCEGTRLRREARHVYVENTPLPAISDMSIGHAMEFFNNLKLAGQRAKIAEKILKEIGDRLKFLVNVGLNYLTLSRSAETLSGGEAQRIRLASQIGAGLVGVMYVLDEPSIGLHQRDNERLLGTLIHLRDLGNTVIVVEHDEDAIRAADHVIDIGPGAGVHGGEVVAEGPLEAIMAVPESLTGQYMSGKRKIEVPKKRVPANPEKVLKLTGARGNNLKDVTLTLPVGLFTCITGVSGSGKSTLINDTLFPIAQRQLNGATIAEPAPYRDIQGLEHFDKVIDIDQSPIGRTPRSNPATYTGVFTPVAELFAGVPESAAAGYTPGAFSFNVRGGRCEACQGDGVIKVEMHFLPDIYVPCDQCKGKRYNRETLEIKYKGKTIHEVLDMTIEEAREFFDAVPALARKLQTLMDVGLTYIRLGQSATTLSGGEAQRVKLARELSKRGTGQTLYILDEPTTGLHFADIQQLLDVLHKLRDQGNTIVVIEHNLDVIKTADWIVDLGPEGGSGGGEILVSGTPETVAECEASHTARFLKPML

B1: 50 bp duplex with single FldT adduct (dsDNA)
DNA 1: CTAGGATCGGATAGCGCATGACAGTGACTGGATCGACAGCGTCGTATGAG
DNA 2: CTCATACGACGCTGTCGATCCAGTCACTGTCATGCGCTATCCGATCCTAG
modifications: fluorescein-dT (FldT) at position 29 of strand 1
[1]
  Kd: 5.6 ± 1 nM
[2]
  binding result: binds
[3]
  binding result: binds
[4]
  binding result: no binding
